Our source for the V0.5 of the activation voltage curve (Boltzmann fit of G/Gmax), whole-cell patch clamp on CHO cells and inactivation time constant of the outward current, whole-cell patch clamp on CHO cells values is patent publication US6984501.

The target in this experiment is human Kv2.1 (human) (UniProt Q14721). As to the kind of experiment: cell-based or functional assay.

For human Kv2.1 (from UniProt Q14721 1-858), the V0.5 of the activation voltage curve (Boltzmann fit of G/Gmax), whole-cell patch clamp on CHO cells worked out at 10.8 mV and the inactivation time constant of the outward current, whole-cell patch clamp on CHO cells is 7.17 ms.
